In US20100135997A1 (MEDGENE, published 2010):
Substitutions are numbered along the chain they refer to.

B1: SEQ ID NO 19 (receptor)
chain: MAGHLPKPTLWAEPGSVITMDQPVTLRCQGGQETQEYRLYREKKTAPWITRIPQELVKKGQFPIPSITWEHAGRYRCYYGSDTSQWSASSDPLELVVTGVYIKPTLSAQPSPVVNSGGNVTLQCDSQVAFDGFILCKEGEDEHPQCLNSQPHARGSSRAIFSVGPVSPSRRWWYRCYAYMSWSPYEWSLPSDLLELDVDG
notes: mutated soluble two domain ILT-2; also called clone 83; Clone c83
B2: SEQ ID NO 13 (receptor)
chain: B1 chain with M180P, S181A, S183T
notes: mutated soluble two domain ILT-2
B3: SEQ ID NO 10 (receptor)
chain: B1 chain with M180T, S181D, W182Y
notes: as for B2
B4: SEQ ID NO 12 (receptor)
chain: B1 chain with M180V, W182Y, S183W
notes: as for B2
B5: SEQ ID NO 20 (receptor)
chain: B1 chain with M180P, S181D, W182F, S183T
notes: as for B2
B6: SEQ ID NO 17 (receptor)
chain: B1 chain with G3Q, F130Y, M180D, W182N
notes: as for B2
B7: SEQ ID NO 15 (receptor)
chain: B1 chain with G3Q, A129S, M180D, W182N
notes: as for B2
B8: SEQ ID NO 14 (receptor)
chain: B1 chain with G3Q, A129D, M180D, W182N
notes: as for B2
B9: SEQ ID NO 16 (receptor)
chain: B1 chain with G3Q, A129T, M180D, W182N
notes: as for B2
B10: SEQ ID NO 21 (receptor)
chain: B1 chain with M180P, S181W, W182F, S183T
notes: as for B2
B11: SEQ ID NO 18 (receptor)
chain: B1 chain with S183A
notes: as for B2
B12: SEQ ID NO 9 (receptor)
chain: B1 chain with S181N, S183A
notes: as for B2
B13: SEQ ID NO 7 (receptor)
chain: B1 chain with M180P, S181I, S183T
notes: as for B2
B14: SEQ ID NO 11 (receptor)
chain: B1 chain with M180V, S181D, S183F
notes: as for B2
B15: SEQ ID NO 8 (receptor)
chain: B1 chain with M180V, S181A, S183A
notes: as for B2
B16: SEQ ID NO 103 (receptor)
chain: MGHLPKPTLWAEPGSVITMDQPVTLRCQGGQETQEYRLYREKKTAPWITRIPQELVKKGQFPIPSITWEHAGRYRCYYGSDTAGRSESSDPLELVVTGIYLAPTLSAQPSPVVNSGGNVTLQCDSQVAFDGFILCKEGEDEHPQCLNSQPHARGSSRAIFSVGPVSPSRRWWYRCYAYDSNSPYEWSLPSDLLELLVL
notes: as for B2
B17: SEQ ID NO 104 (receptor)
chain: B16 chain with M19L, D20G
notes: as for B2
B18: SEQ ID NO 105 (receptor)
chain: B16 chain with A83S, G84Q, R85W, E87A
notes: as for B2
B19: SEQ ID NO 106 (receptor)
chain: B16 chain with M19L, D20G, A83S, G84Q, R85W, E87A
notes: as for B2

The binders below were run against T1, HLA-A*0201 loaded with the Carcinoembryonic antigen (CEA)-derived … peptide (biotin on the C-terminal biotinylation tag) (assay: Biacore SPR).
T1 construct: Soluble, biotinylated, immobilised on a streptavidin chip
Procedure: SPR measures changes in refractive index expressed in response units (RU) near a sensor surface within a small flow cell, a principle that can be used to detect receptor ligand interactions and to analyse their affinity and kinetic parameters. The probe flow cells were prepared by immobilising the pMHC complexes in flow cells via biotin-tag binding. The assay was then performed by passing soluble ILT-like molecule over the surfaces of the different flow cells at a constant flow rate, measuring the SPR response in doing so.

Binder	Kd	koff
B1	≤ 1 µM	≤ 2 s⁻¹
B2	≤ 1 µM	≤ 2 s⁻¹
B3	≤ 1 µM	≤ 2 s⁻¹
B4	≤ 1 µM	≤ 2 s⁻¹
B5	≤ 1 µM	≤ 2 s⁻¹
B6	≤ 1 µM	≤ 2 s⁻¹
B7	≤ 1 µM	≤ 2 s⁻¹
B8	≤ 1 µM	≤ 2 s⁻¹
B9	≤ 1 µM	≤ 2 s⁻¹
B10	≤ 1 µM	≤ 2 s⁻¹
B11	≤ 1 µM	≤ 2 s⁻¹
B12	≤ 1 µM	≤ 2 s⁻¹
B13	≤ 1 µM	≤ 2 s⁻¹
B14	≤ 1 µM	≤ 2 s⁻¹
B15	≤ 1 µM	≤ 2 s⁻¹
B16	≤ 1 µM	≤ 2 s⁻¹
B17	≤ 1 µM	≤ 2 s⁻¹
B18	≤ 1 µM	≤ 2 s⁻¹
B19	≤ 1 µM	≤ 2 s⁻¹
